Consider five variants from PMC10484734, “TLK1-mediated RAD54 phosphorylation spatio-temporally regulates Homologous Recombination Repair” (Nucleic Acids Research, 2023).

Sequences and labels used below:
B1: recombinant human RAD51 [human] / His6-Thioredoxin-RAD54-Flag (recombinant human RAD54, wild type) [human] (parent complex)
chain 1: MAMQMQLEANADTSVEEESFGPQPISRLEQCGINANDVKKLEEAGFHTVEAVAYAPKKELINIKGISEAKADKILAEAAKLVPMGFTTATEFHQRRSEIIQITTGSKELDKLLQGGIETGSITEMFGEFRTGKTQICHTLAVTCQLPIDRGGGEGKAMYIDTEGTFRPERLLAVAERYGLSGSDVLDNVAYARAFNTDHQTQLLYQASAMMVESRYALLIVDSATALYRTDYSGRGELSARQMHLARFLRMLLRLADEFGVAVVITNQVVAQVDGAAMFAADPKKPIGGNIIAHASTTRLYLRKGRGETRICKIYDSPCLPEAEAMFAINADGVGDAKD
chain 2: MRRSLAPSQLAKRKPEGRSCDDEDWQPGLVTPRKRKSSSETQIQECFLSPFRKPLSQLTNQPPCLDSSQHEAFIRSILSKPFKVPIPNYQGPLGSRALGLKRAGVRRALHDPLEKDALVLYEPPPLSAHDQLKLDKEKLPVHVVVDPILSKVLRPHQREGVKFLWECVTSRRIPGSHGCIMADEMGLGKTLQCITLMWTLLRQSPECKPEIDKAVVVSPSSLVKNWYNEVGKWLGGRIQPLAIDGGSKDEIDQKLEGFMNQRGARVSSPILIISYETFRLHVGVLQKGSVGLVICDEGHRLKNSENQTYQALDSLNTSRRVLISGTPIQNDLLEYFSLVHFVNSGILGTAHEFKKHFELPILKGRDAAASEADRQLGEERLRELTSIVNRCLIRRTSDILSKYLPVKIEQVVCCRLTPLQTELYKRFLRQAKPAEELLEGKMSVSSLSSITSLKKLCNHPALIYDKCVEEEDGFVGALDLFPPGYSSKALEPQLSGKMLVLDYILAVTRSRSSDKVVLVSNYTQTLDLFEKLCRARRYLYVRLDGTMSIKKRAKVVERFNSPSSPDFVFMLSSKAGGCGLNLIGANRLVMFDPDWNPANDEQAMARVWRDGQKKTCYIYRLLSAGTIEEKIFQRQSHKKALSSCVVDEEQDVERHFSLGELKELFILDEASLSDTHDRLHCRRCVNSRQIRPPPDGSDCTSDLAGWNHCTDKWGLRDEVLQAAWDAASTAITFVFHQRSHEEQRGLR

The variants in the first test derive from B1. The experiment in a line: pull-down (silver-stained gel, quantified); read off a plot.
As for chain 2 T41D, chain 2 T59D, chain 2 T700D, the ratio to parent is approximately 0.27.
For the variant chain 2 T41D, chain 2 T59D, the ratio to parent is approximately 0.41.
Still for that read-out and setting: with chain 2 T41D the figure was approximately 0.25; with chain 2 T59D, approximately 0.58; with chain 2 T700D, approximately 1.3.

In the next test the parent is B1. The test is described as above. The source holds these as a separate data set.
For chain 2 T700D, the ratio to parent is approximately 1.2.
